In publication PMC8628261 (Cell reports, 2021):

B1: mouse Kirrel2 ectodomain, wild type (domain or fragment, UniProt Q7TSU7 20-507, looked up)
chain: SPHFLQQPEDMVVLLGEEARLPCALGAYRGLVQWTKDGLALGGERDLPGWSRYWISGNSASGQHDLHIKPVELEDEASYECQASQAGLRSRPAQLHVMVPPEAPQVLGGPSVSLVAGVPGNLTCRSRGDSRPAPELLWFRDGIRLDGSSFHQTTLKDKATGTVENTLFLTPSSHDDGATLICRARSQALPTGRDTAVTLSLQYPPMVTLSAEPQTVQEGEKVTFLCQATAQPPVTGYRWAKGGSPVLGARGPRLEVVADATFLTEPVSCEVSNAVGSANRSTALEVLYGPILQAKPKSVSVDVGKDASFSCVWRGNPLPRITWTRMGGSQVLSSGPTLRLPSVALEDAGDYVCRAEPRRTGLGGGKAQARLTVNAPPVVTALQPAPAFLRGPARLQCVVFASPAPDSVVWSWDEGFLEAGSLGRFLVEAFPAPEVEGGQGPGLISVLHISGTQESDFTTGFNCSARNRLGEGRVQIHLGRRDLLPTVR
B2: mouse Kirrel3 ectodomain, wild type (domain or fragment, UniProt Q8BR86 22-535, looked up)
chain: LQKRGCCLVLGYMAKDKFRRMNEGQVYSFSQQPQDQVVVSGQPVTLLCAIPEYDGFVLWIKDGLALGVGRDLSSYPQYLVVGNHLSGEHHLKILRAELQDDAVYECQAIQAAIRSRPARLTVLVPPDDPIILGGPVISLRAGDPLNLTCHADNAKPAASIIWLRKGEVINGATYSKTLLRDGKRESIVSTLFISPGDVENGQSIVCRATNKAIPGGKETSVTIDIQHPPLVNLSVEPQPVLEDNIVTFHCSAKANPAVTQYRWAKRGHIIKEASGELYRTTVDYTYFSEPVSCEVTNALGSTNLSRTVDVYFGPRMTSEPQSLLVDLGSDAVFSCAWIGNPSLTIVWMKRGSGVVLSNEKTLTLKSVRQEDAGKYVCRAVVPRVGAGEREVTLTVNGPPIISSTQTQHALHGEKGQIKCFIRSTPPPDRIAWSWKENVLESGTSGRYTVETVNTEEGVISTLTISNIVRADFQTIYNCTAWNSFGSDTEIIRLKEQGSEMKSGAGLEAESVPMA

Target: the molecule itself
Assay: AUC

| Protein | Kd | stoichiometry N |
| --- | --- | --- |
| B1 | 900 nM | 2 |
| B2 | 210 nM | 2 |
